In the data set the target is Pol gamma A R853A exo-;Pol gamma B deltaI4 (human;human?, UniProt P54098;Q9UHN1 1-1239;1-485, D198A;E200A;R853A|del136-182). Briefly: X-ray crystal structure (3.4 A); dCTP (2 mM), 10 mM CaCl2; ternary complex, dCTP not paired with template dG; Crystal: 63.5 uM protein, 114.3 uM DNA, 10 mM CaCl2, 2 mM dCTP; well 100 mM MES pH 6.0, 150 mM NaCl, 10 mM CaCl2, 50 mM BME, 3% PEG-8000, 1-8% sucrose, 2% Jeffa. Particulars: protein: recombinant;recombinant; (Ni-NTA purified); copies: 1;2; 5' overhang 4 nt (template strand), recessed primer 3' end.
Sequence of Pol gamma A R853A exo-;Pol gamma B deltaI4 (P54098 whole entry D198A/E200A/R853A, chain 1 of 2): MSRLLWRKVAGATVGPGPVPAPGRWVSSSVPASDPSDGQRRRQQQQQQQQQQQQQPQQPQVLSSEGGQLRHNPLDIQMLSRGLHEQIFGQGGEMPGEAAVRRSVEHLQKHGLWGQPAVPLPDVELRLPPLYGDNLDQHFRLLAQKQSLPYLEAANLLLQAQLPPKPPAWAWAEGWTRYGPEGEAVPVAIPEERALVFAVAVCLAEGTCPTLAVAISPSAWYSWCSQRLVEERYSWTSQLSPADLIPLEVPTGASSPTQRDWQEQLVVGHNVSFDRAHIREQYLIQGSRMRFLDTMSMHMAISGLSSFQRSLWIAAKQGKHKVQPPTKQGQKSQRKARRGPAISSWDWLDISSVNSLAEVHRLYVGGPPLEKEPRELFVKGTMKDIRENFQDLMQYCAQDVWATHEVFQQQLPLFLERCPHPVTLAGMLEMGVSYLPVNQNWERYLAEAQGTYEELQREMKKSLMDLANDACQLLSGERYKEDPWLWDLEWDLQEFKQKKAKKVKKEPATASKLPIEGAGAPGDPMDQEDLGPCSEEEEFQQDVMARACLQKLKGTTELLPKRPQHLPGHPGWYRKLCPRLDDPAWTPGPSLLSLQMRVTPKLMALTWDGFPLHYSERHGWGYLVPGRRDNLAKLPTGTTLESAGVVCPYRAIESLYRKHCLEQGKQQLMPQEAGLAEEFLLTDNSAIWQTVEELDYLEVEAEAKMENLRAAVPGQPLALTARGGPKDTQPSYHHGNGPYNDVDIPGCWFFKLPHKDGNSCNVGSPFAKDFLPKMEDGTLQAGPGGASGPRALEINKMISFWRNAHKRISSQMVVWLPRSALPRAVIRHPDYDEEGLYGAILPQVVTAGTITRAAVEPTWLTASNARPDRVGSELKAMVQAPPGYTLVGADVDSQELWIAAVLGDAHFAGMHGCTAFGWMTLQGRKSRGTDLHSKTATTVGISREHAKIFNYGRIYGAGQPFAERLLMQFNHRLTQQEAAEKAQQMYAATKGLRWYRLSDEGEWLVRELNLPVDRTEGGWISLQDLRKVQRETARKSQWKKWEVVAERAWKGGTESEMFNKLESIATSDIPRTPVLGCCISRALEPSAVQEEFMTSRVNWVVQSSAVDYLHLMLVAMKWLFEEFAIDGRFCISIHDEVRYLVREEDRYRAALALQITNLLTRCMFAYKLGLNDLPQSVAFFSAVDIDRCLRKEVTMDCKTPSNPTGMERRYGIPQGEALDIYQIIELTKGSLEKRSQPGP
Sequence of Pol gamma A R853A exo-;Pol gamma B deltaI4 (Q9UHN1 other isoform, or with tags, fused parts or gaps D198A;E200A;R853A|del136-182 | R853A R853A, chain 2 of 2): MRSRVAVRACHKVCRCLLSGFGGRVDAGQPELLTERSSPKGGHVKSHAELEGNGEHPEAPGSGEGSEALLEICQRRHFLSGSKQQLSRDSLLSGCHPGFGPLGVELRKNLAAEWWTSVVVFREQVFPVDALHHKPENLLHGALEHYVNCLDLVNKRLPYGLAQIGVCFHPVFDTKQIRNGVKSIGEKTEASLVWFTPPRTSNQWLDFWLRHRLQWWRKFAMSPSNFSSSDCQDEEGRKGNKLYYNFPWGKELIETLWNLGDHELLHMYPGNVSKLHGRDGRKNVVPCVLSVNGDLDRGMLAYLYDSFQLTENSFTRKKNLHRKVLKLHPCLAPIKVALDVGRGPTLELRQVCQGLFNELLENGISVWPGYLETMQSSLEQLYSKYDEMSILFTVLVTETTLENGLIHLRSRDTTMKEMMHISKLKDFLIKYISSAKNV

B1: 24-nt/28-nt primer/template, ddC-terminated primer (crystal) (dsDNA)
DNA 1: CGAAAACGACGGCCAGTGCCATAC
DNA 2: CGAGGTATGGCACTGGCCGTCGTTTTCG
modifications: 2',3'-dideoxyC at primer 3' end (position 24 of strand 1)
With B1, the binding result was “binds”.

Values taken from PMC11122685, “An interaction network in the polymerase active site is a prerequisite for Watson-Crick base pairing in Pol γ”.
